In US20130071410A1 (published 2013):

Biological target: T1, human CGRP receptor (CRLR + RAMP1) (human, UniProt Q16602 23-461; O60894 27-148)
T1 construct: also called hCGRP R; huCGRP R
Assay: FACS staining of transfected cells

T1 sequence (Q16602 23-461 limits assumed, chain 1 of 2): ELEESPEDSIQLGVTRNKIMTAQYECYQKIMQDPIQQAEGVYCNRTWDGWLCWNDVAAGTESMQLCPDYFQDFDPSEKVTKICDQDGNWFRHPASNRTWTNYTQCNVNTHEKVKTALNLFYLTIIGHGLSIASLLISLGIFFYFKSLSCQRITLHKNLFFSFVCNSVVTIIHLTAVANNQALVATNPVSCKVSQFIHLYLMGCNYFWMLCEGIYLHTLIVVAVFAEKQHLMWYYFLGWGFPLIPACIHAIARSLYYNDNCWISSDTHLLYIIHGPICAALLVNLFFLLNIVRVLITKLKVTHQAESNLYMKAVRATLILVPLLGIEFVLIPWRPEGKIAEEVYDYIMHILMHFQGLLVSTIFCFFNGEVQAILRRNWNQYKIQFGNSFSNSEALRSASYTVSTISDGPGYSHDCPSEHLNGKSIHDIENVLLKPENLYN
T1 sequence (O60894 27-148 limits assumed, chain 2 of 2): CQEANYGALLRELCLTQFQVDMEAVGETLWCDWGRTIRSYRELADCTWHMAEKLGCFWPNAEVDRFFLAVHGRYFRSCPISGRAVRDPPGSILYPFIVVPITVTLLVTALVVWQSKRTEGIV

binding result: binds
B1: Alexa 647-labeled CGRP8-37 peptide analog (peptide)
peptide: Ac-WVTHRLAGLLSRSGGVVRCNFVPTDVGPFAF-NH2
modifications: also: Alexa 647 label, site not given here
notes: also called Alexa647-CGRP8-37
